Assays:
[1] = target: Y34F S2SbHbN (Shewanella benthica strain KT99); assay: HP-SAXS (batch SAXS in the high-pressure cell); undiluted sample 10 mg/ml in the high-pressure cell, ambient pressure (0.101 MPa) point of the pressure series; volume-fraction analysis, radius of gyration and molecular mass
[2] = target: S2SbHbN, Shewanella benthica strain KT99 TrHbN-2 (UniProt ID: A9DF82) with Cys51Ser and Cys71Ser replacements (Shewanella benthica strain KT99); assay: as above

Substance | stoichiometry N [1] | stoichiometry N [2]
Y34F S2SbHbN (natural protein) | 4 | 
S2SbHbN, Shewanella benthica strain KT99 TrHbN-2 (UniProt ID: A9DF82) with Cys51Ser and Cys71Ser replacements (natural protein) |  | 4
